Results: the nanobody polyreactivity screen of Harvey et al. (2022)

Assay: yeast display, Sf9 membrane polyspecificity reagent, FACS + sequencing; frameworks hold sequencing errors
Summary of the method: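 Genes from sorted yeast were amplified by colony PCR, read by MiSeq 2 × 250 sequencing and filtered on CDR length. These cells carried a synthetic nanobody library in Saccharomyces cerevisiae BJ5465 and were sorted by FACS into low and high (top ~1%) gates on anti-HA and streptavidin fluorescence. Polyreactivity is labelled according to the gate of origin.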

Sequence | polyreactivity (PSR sort gate)
QDQLVETLGGLVQAGASLRLSCAASGSIFGNNAMVWYRQEPGKERELVAAISGTGGTTYADSVKGRFTISRDNAKNTVYLQMNSLKPEDTAVYYWALRVWVRDYPFGYARYGYWGQGTQVTVSS | low polyreactivity
QFQLVESGGGLVQAGGSLRLSCAASVLTFSAYAMGWYRQAPGKEREFVAAITDSDGSTYYADYVKGRFTISRDNEKNTVYLQMNSLKPEDTAVYYCAASGSWYYGYWSGGYDYWGQGTQVTVSS | low polyreactivity
QVQLVESGGGLVQAGGSLRLSCAASGSTFYVYAMGWYRQAPGKERELVAAITVRGGSTYYADSVKGRFTISRDNAKNTVYLQMNSLKPEDTAVYYCAVDVSKPYYEMDYWGQGTQVTVSS | high polyreactivity
QVQLVESGGGLVQAGGSLRLSCAASGSIFCYNTMGWYRQAPGKERELVAAITFSGGSTYYADSVKGRFTISRDNAKNTVYLKMNSLKPEDTAVYYCAAVFYSAVGYYYWGQGTQVTVSS | low polyreactivity
QVQLVESGGGLVQAGGSLRLSCAASGFIFWRYAMGWYRQAPGKERELVAAITSGGRTNYADSVKGRFTISRDNAKNTVYLQMNSLKPEDTAVYYCAADRSWSPRAGWYDYWGQGTQVTVSS | high polyreactivity
QVQLVESGGGLVQAGGSLRLSCAASGRIFKGNAMGWYRQAPGKEREFVAAISQRGGSTYYADSVKGRFTISRDNAKNTVYLQMNSLKPEDTAVYYCAAVRKSVGVKYDYWGQGTQVTVSS | high polyreactivity
QVQLVESGGGLVQAGGSLRLSCAASGLTFEYYTMGWYRQAPGKERELVAAITSSGGSTYYADSVKGRFTISRDNAKNTVYLQMNSLKPEDTAVYYCNAYWTYEFPSYDYWGQGTQVTVSS | low polyreactivity
QFQLLESGGGLVQAGGSLRLICAASGFICSLYAMGWYRPAPGKERELVATINRRGTSTFYADSVKGRFTISRDNAKNTVYLQMNSLKPEDTAVYYCNAYPGAAIRSTGRYDYWGQGTQVTVSS | low polyreactivity
QVQLVESGGGLVQAGGSLRLSCAASGFTFRFYAMGWYRQAPGKERELVAVITSRGTRTYYADSVKGRFTISRDNAKNTVYLQMNSLKPEDTAVYFCAKDFAFNGGISKYDYWGQGTQVTVSS | high polyreactivity
QVQLVESGGGLVQAGGSLRLSCAASGLIFYINAMGWYRQAPGKERELVAAISSGGSTNYADSVKGRFTISRDNAKNTVYLQMNSLKPEDTAVYYCARDAYLPRIADGDGRYELVDYWGQGTQVTVSS | low polyreactivity
QVQLVESGGGLVQAGGSLRLSCAASGFTFSFYAMGWYRQAPGKERELVATISSGGSTTYADSVKGRFTISRDNAKNTVYLQMNSLKPEDTAVYYCAARGKYYRSQDPSGPRRYDYWGQGTQVTVSS | high polyreactivity
QVQLVESGGGLVQAGGSLRLSCAASGFIFRKYGMGWYRQAPGKERELVAAIRFTGGSTRYADSVKGRFTISRDNAKNTVYLQMNSLKPEDTAVYYCNADRVYVRGRFTYDYWGQGTQVTVSS | low polyreactivity
QVQLVESGGGLVQAGGSLRLSCAATGSTFGGNAMGWYRQAPGKERELVAAISSSGGSTYYADSVKGRFTISRDNAKNTVYLQRNRLKPEDTAVYYCAALYHWTYDYWGQGTQVTVSS | low polyreactivity
QVQLVESGGGIVQAGGSLRLSCAASGRTFRGNAMGWYRQAPGKERELVAAISWSGGRTYYADSVKGRFTISRDNAKNTVYLQMNSLKPEDTAVYYCNRLTRRWYSLRSFDYWGQGTQVTVSS | high polyreactivity
QVQLVESGGGLVQAGGSLRLSCAASGIIFYLYAMGWYRQAPGKERELVAAITLSGSTTYYADSVKGRFTISRDNAKNTVYLQMNSLKPEDTAVYYCNADTPVRSDYWGQGTQVTVSS | low polyreactivity
QVQLVESGGGLVQAGGSLRLSCAASGSIFRYYVMGWSRQAPGKERELVASISYSVGRTYYADSVKGRFTISRDNAKNTVYLQMNCLKPEDTAVYYCAADRYWPYYSAYYTSYRMDYWGQGTQVTVSS | high polyreactivity
QVQLVESGGGLVLAGGSLRLSCAASGRIFGTNAMGWYRQAPGKERELVAAISLSGGRTYADSVKGRFTISRDNAKNTVYLQMNSLKPEDTAVYYCNADSAGITRSRSELDYWGQGTQVTVSS | low polyreactivity
QVQLVESGGGLVQAGGSLRLSCAASGYTFGYYAMGWYRQAPGKERELVAAINWSGGSTYYADSVKGRFTISRDNAKNTVYLQMNSLKPEDTAVYYCNRRTGSYGRTPVWKGEYYYWGQGTQVTVSS | high polyreactivity
QVQLVESGGGLVQAGGSLRLSCAASGSIFIANAMGWYRKAPGKERELVAAISRSGSTTYYADSVKGRFTISRDNAKNTVYLQMNSLKPEDTAVNYCNARYSLHSYYWFIYDSWGQGTQVTVSS | low polyreactivity
QVQLVESGGGLVQAGGSLRLSCAASGYIFYPYTMGWYRPAPGKERELVAAITRSGSSTYYADSVKGRFTISRDNAKNTVYLQMNSLKPEDTAVYYCAAQRVNWYLSPSLYYYWGQGTQVTVSS | high polyreactivity
QVQLVESGGGLVQAGGSLRLSCAASGRIFVRNAMGWYRQAPGKERELVAAITRTGASTYYADSVKGRFTISRDNAKNTVYLQMNSLKPDDTAVYYCAAVWGWPYWVYRYDYWGQGTQVTVSS | high polyreactivity
QVQLVESGGGLVQAGGSLRLLCADSGFTFEYYAMGWYRQAPGKERELVAAITSGGSTNYADSVKGRFTISRDNAKNTVYVQMNSLKPEDTAVYYCAAGYWYRYAALRYDHWGQGTQVTVSS | low polyreactivity

Sequence | polyreactivity (PSR sort gate)
QVQLVESVGGLVQAGGSLRLTCAASGRIFEINTMGWYRQAPGKERELVAAISRGGGSTYYADSVKGRFTISRDNAKNTVYLQMNSLKPEDTAVYYCAAASYYVEGDYWGQGTQVTVSS | low polyreactivity
QVQLVESVGGLVQAGGSLRLSCAASGSIFYPYAMGWYRQAPGKERELVAAIRNGRSTYYADSVKGRFTISRDNAKNTVYLKMNSLKPEDTAVYYCAASVRRRHPFEYWGQGTQVTVSS | high polyreactivity
QVQLVESGGGLVQARGSLRLSCAASGFTFPSYAMGWYRQAPGKERELVARITWIGGRTYYADSVKGRFTISRDNAKNTVYLQMNSLKPEDSAVYYCAARIGGGPVKYDYWGQGTQVTVSS | high polyreactivity
QVQLVESGRGLVQAGGSLRLSCAASGVIFSIYAMGWYRQAPGKERELVAAISTSGGSTYYADSVKGRFTISRDNAKNTVYLQMNRLKPEDTAVYYCNARRGFYWSWRGRYISGDYWGQGTQVTVSS | high polyreactivity
QVQLVESGGGLVQAGGSLRLSCAASGFTFVYYTMGWYRQAPGKERELVAAITSRGGNTYYADSVKGRFTISRDNAKNTVYLQMNSLKPEDTAVYYCAARRITTYYYWGQGTQVTVSS | high polyreactivity
QVQLVESGGGLVQAGGSLRLSCAASGSTFFYYAMGWYRQAPGKDRELVAAISGGGGDTTYADSVKGRFTISRDNAKNTVYLQMNSLKPEDTAVYYCAAVPGSFGSGIFDYWGQGTQATVSS | low polyreactivity
QVQLVESGGGLDQAGGSLRLSCAASGSIFRYYAMGWYRQAPGKEREFVASITYRGGRTYYADSVKGRFTISRDNAKNTVYLQMNSLKPEDTAVYYCAARTRAGAWTSKYHDYWGQGTQVTVSS | high polyreactivity
EVQLVESGGGLVQAGGSLRLSCAASGRTFSYYAMGCYRQAPGKERELVAAISGGGSTNYADSVKGRFTISRDNAKYTVYLQMNSLKPEDTAVYYCAVGGFLRYRISLGKSYYYWGQGTQVTVSS | high polyreactivity
QVQLVESGGGLVQAGGSLRLSCAASGSTFVRNAMGWYRQAPGKERELVAAITSSGGSTYYADSVKGRFTISRDNAMKTVYLQMNSLKPEDTAVYYCNAELGSDTANYDYWGQGTQVTVSS | low polyreactivity
QVQLVESGGGLVQAGGSLRLTCAASGRTFYVYAMGWYRQAPGKERELVAAITRSGDSTYADSVKGRFTISRDNAKNTVYLQMNSLKPEDTAVYYCSKRYTHYSFRRFDYWGQGTQVTVSS | low polyreactivity
QVQLVESGGGLVQAGGSHRLSCAASGRINYNYAMGWYRQAPGKERELVAAISGSGGSTYYADSVKARFTISRDNAKNTVYLQMNSLKPEDTAVYYCSTSGPQYDSRNFDYWGQGTQVNVSS | low polyreactivity
QVQLVESGGGLVQAGGSLRLSCAASGRIFYTYAMGWYRQAPGKERELVATISGRGGSTYYADSVKGRFTISRDNAKNTVYLLMNSLKPEDTAVYYCAAVSYTQSHAYWGTGYRYGYWGQGTQVTVSS | high polyreactivity
QVQLVESGGGLVQAGGRLRLSCAASGRTLYRYVMVWYRQAPWKERELVAAISATAGSTYYADSVKGRFTISRDNAKNTVYLQMNSLTPEDTAVYYCAAEGYTLWYWLEFEYWGQGTQVTVSS | high polyreactivity
QVQLVESGGGSVQAGGSLRLSCAASGSTFWSYAMGWYRQAPGKERELVAVITGSDGRTFYADSVKGRFTISRDNANNTFFLQMNSLKPEDTAVYYCAADALFRATRFDRSTSEDDYWGQGTQVTVSS | low polyreactivity
QVQLVESGGGLVQAGGSLRLSCAASGIIFTRYVMGWYRQAPGKERELVATIRIGGSTTYADSVKGRFTISRDNAKNTVYLQMNSLKPEDTAVYYCAADTWYITTYGGAGSYAYGFYYWGQGTQVTVSS | low polyreactivity
QVQLVESGGGLVQAGGSLRLSCAASGSISYQNAMGWYRQAPGKERELVAAITSSGGNTYYADSVKGRFTISRDNAKNTVYLQMNSLKPEDTAVYYCNAVLYYDSYLYYYWGQGTQVTVSS | low polyreactivity
QVQLEESGGGLVQAGGRLRLSCAASGIISAHYAMGWYRQAPGKERELVAAISSSGGSTYYADSVKGRFTISRDNAKNTVYLQMNSLKPEDTAVYYCNAEFYWGYDYWGQGTQVTVSS | low polyreactivity
QVQLVDSGGGLVQAGGSLRLSCAASGYIFSANAMGWYRQAPGKERELVAVISWNGDGTYYADSVKGRFTISRDNAKNTVYLQMNSLKAEDTAVYYCAALSYAYRSQSRRYGYRFDYWGQGTQVTVSS | high polyreactivity
QVQLVESGGGLVQAGGSLRLSCAASGFIFKRYAMGWYRQAPGKERELVAVITRSGGSTYYADSVKGRFTISRDNAKNTVYLQMNSLKPEDTAVYYCAVDFTDRGYDYWGQGTQVTVSS | high polyreactivity
QVQLVESGGGLVQAGGSLRLSCAASGRTFSYYTMGWSRQAPGKERQLVARISNRGTNTYYADSVKGRFTISRDNAKNTVYLQMNSLIPEDTGVYYCAKYYYTSIVGYDSWGQGTQVTVSS | low polyreactivity
QVQLVESGGGLVQAGGSLRLSCAASGFTFINYAMGWYRQAPGKERELVAAISSSSDRTYDADSVKGRFTISRDNAKNTVYLQMNSLKPEDTAVYYCAAYAQKRYYWGQGTQVNVSS | high polyreactivity
